Source: patent publication US20050142101A1

What was measured:
[1] = target: CCL11 (eotaxin) (Homo sapiens (Human)) (UniProt P51671)
CCL14[9-74] (human) = CCL14[9-74] (human) (UniProt Q16627)
[2] = target: CXCL12 (SDF-1α) (Homo sapiens (Human)) (UniProt P48061)

CD26/DPP IV processing in vitro, MALDI mass spectrometry (time to complete processing) [1]: 1 h | CD26/DPP IV processing in vitro, MALDI mass spectrometry (time to complete processing) (CCL14[9-74] (human)): 12 h | CD26/DPP IV processing in vitro, MALDI mass spectrometry (time to complete processing) [2]: 10 min
Substance: porcine kidney DPP IV/CD26 (from UniProt P22411) (enzyme)
